Measurements as given in the supplement of paper PMC9170038.

Tested on: MS2 coat protein
Assay: apparent KD of MS2 coat protein; designed switch direction (-1 OFF switch, 1 ON switch): -1; higher = weaker reporter binding
Outline: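 The reported apparent KD is a per-design median over clusters, from curve fits of normalised cluster fluorescence. Protein titrations used SNAP-549-labelled MS2 coat protein, doubled from 0.7 or 1.5 nM to 3 µM, in Tris-HCl pH 7.5 buffer with KCl, MgCl2, BSA, DTT, tRNA and Tween-20, with no input, 200 uM small-molecule ligand, or an oligonucleotide input. The RNA switches were transcribed on Illumina chips by stalled E. coli RNA polymerase.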

[1] = Eterna round: R95, input ligand: FMN 200 uM
[2] = Eterna round: R95, input ligand: microRNA oligo, concentration not stated
[3] = Eterna round: R95, input ligand: none
[4] = input ligand: microRNA oligo, concentration not stated

Sequence	apparent KD of MS2 coat protein [1] [µM]	apparent KD of MS2 coat protein [2] [µM]	apparent KD of MS2 coat protein [3] [µM]	apparent KD of MS2 coat protein (input ligand: FMN 200 uM) [µM]	apparent KD of MS2 coat protein (input ligand: none) [µM]	apparent KD of MS2 coat protein [4] [µM]
AAUACACAUGAGGAUCACCCAUGUCAGGAUAUGCGCAGACAGACAGACAGACAGACGAGCAGAAGGGAUAGGAA [Excls1-IV] (puzzle: Exclusion 1)	0.054	0.0675	0.0493			
AAUACACAUGAGGAUCACCCAUGUUAGGAUAUGAGCAGACAGACAGACAGACAGACGAUCAGAAGGAAUAGGAA [Excls1-V] (puzzle: Exclusion 1)	0.0261	0.0254	0.0329			
AAUAGCAAGCAAGAUCCUAACAUGAGGAUCACCCAUGUGCUCGUCUUGUAAAGUACUAUCACGAAAGUGAUAGUACA [Sensor 3, v1 - 49] (puzzle: Sensor v3, turn-off variant 1)	0.0297	0.211	0.0319			
AAUAGCUGAGGAUAUACAUGAGGAUCACCCAUGUAUUAGUAGGCUGGGAAUAAAUCGUGUAGAAGGCAGGAUGA [Ceerge] (puzzle: Exclusion 3)		0.0167				
AAUAGUAAUAAGGAUAUCACUAGCCUCGGCUAGUGAGAAGGUAUUACAUGAGGAUCACCCAUGUGGUCAAUUAA [E6/4-A2] (Eterna round: R97, puzzle: Exclusion 6)				1.11	1.13	
AAUCAACAUGAGGAUCACCCAUGUGAGGAUAUACGCAUGCAUGCAUGCAUGCAUGCAAGUAGAAGGCACAAUAC [Design #17] (Eterna round: R97, puzzle: Exclusion 1)				0.042	0.0279	
AAUCGACAUGAGGAUCACCCAUGUUAGGAUAUGCGGAAUCGGUCAAUCAAUCGAUCAAGCAGAAGGGACGGGUU [Candy Rainbow] (puzzle: Exclusion 1)	0.0291	0.0274	0.0342			
AAUGACUGAGGAUAUUGUACUGCUGACAUGAGGAUCACCCAUGUAUGCUAACUCGGCCGUCGAGAAGGCAGUCAUG [BotMod 24 - Jieux - Exclusion 5] (Eterna round: R97, puzzle: Exclusion 5)				0.0185	0.028	
AAUGAUUGACGAGGAUAUUGUGUUAGAUCACGACGAGAAGGCGUCUGUCACAUGAGGAUCACCCAUGUGAGCCUUGUGGAUAGA [Ex NG1 #77] (Eterna round: R96, puzzle: Exclusion NG 1)				0.618	0.378	0.399
AAUGCGGACAAAGGAUAUUGCGGUGACCGGCUCGGCGUACCGAGCCUACAUGAGGAUCACCCAUGUAAGAAGGUUGUCGCUAAA [Mat - Exclusion NG 2 - Mod of JL - D74] (Eterna round: R96, puzzle: Exclusion NG 2)				0.0431	0.0176	0.0138
AAUGGUAAAGUCAGGAUAUACGUAAAUCGUACUAGGUAGAAGGGACAUGAGGAUCACCCAUGUAUGAUAGUAAA [Ex4 #31] (Eterna round: R97, puzzle: Brourd's mod of Exclusion 4)				0.066	0.076	
AAUGUCUGAGGAUAUCGUUUUUUGUACAUGAGGAUCACCCAUGUCCAAUUUUGUAUAUUACGAGAAGGCAGUGGAA [JR_E5_Sub089] (Eterna round: R96, puzzle: Exclusion 5)				0.0239	0.015	0.0107
AAUGUCUGAGGAUAUCGUUUUUUGUACAUGAGGAUCACCCAUGUCCAAUUUUGUAUAUUACGAGAAGGCAGUGGAA [JR_E5_Sub089] (puzzle: Exclusion 5)		0.0146				
AAUUAAGCAAGCAGAUCCCACAUGAGGAUCACCCAUGUGCUCGUCUUAUAAGGUACUGUGACAAAAGUCACGGUACC [Mat - Sensor, turn-off var - Eli Mod - D73] (Eterna round: R97, puzzle: Sensor, turn-off variant 1)				0.108	0.117	
AAUUAAUUAAUUAAUUAAUACAUGAGGAUCACCCAUGUAAUUUAAGAUCCUUAUACAAGCUUUGAUCUCGUCUUAUA [Stov1/5-A1] (Eterna round: R97, puzzle: Sensor, turn-off variant 1)				0.0945	0.106	
AAUUAGCAAGCGAGAUCCCACAUGAGGAUCACCCAUGUGCUCGUCUUAUAUAAGGUACUGUACAAAAGUACGGUACC [Mat - Sensor, turn-off var - Eli Mod - D32] (Eterna round: R97, puzzle: Sensor, turn-off variant 1)				0.0145	0.0141	

Sequence	apparent KD of MS2 coat protein [1] [µM]	apparent KD of MS2 coat protein [2] [µM]	apparent KD of MS2 coat protein [3] [µM]	apparent KD of MS2 coat protein (input ligand: FMN 200 uM) [µM]	apparent KD of MS2 coat protein (input ligand: none) [µM]	apparent KD of MS2 coat protein [4] [µM]
AAUUAGCAAGCGAGAUCUCACAUGAGGAUCACCCAUGUGCUCGUCUUAUAAGGUACUGUGACGAAAGUCACGGUACC [Mat - Sensor, turn-off var - Eli Mod - D40] (Eterna round: R97, puzzle: Sensor, turn-off variant 1)				0.0148	0.0158	
AAUUAUUUUUGAGGAUAUGGUAGUGAAACACUACCAGAAGGCGGAAUAAACAUGAGGAUCACCCAUGUGAGCCUGAUGCUUAUG [Ex NG1 #46] (Eterna round: R96, puzzle: Exclusion NG 1)						0.0179
AAUUCACAUGAGGAUCACCCAUGUCAGGAUAUGGUUUCACGUUUUUCUUUUCUUGAUUCCAGAAGGGACAGCUA (puzzle: Exclusion 1)		0.0586				
AAUUCGCAAGCGAGAUCCCACAUGAGGAUCACCCAUGUGCUCGUCUUAUAAGGUACUGUGACAAAAGUCACGGUACC [Mat - Sensor, turn-off var - Eli Mod - D84] (Eterna round: R97, puzzle: Sensor, turn-off variant 1)				0.0143	0.0132	
AAUUGCUAGCCGAUCCUCCACAUGAGGAUCACCCAUGUGCUCGUCUUGUAAUGUGCUAUCACGAAAGUGAUAGUACA [Sensor v3, turn-off variant 1 (MOD of Eli's v1-59 v.4)] (puzzle: Sensor v3, turn-off variant 1)	0.413	0.0134	0.315			
AAUUUAAUUAACAAGCUUUACAUGAGGAUCACCCAUGUGAUCAUGCUCGUCUUAGGUACAGGCUUCGGCCUGUACCA [Stov1/6-B1] (Eterna round: R97, puzzle: Sensor, turn-off variant 1)				0.0497	0.0555	
AAUUUACAUGAGGAUCACCCAUGUCAGGAUAUGGUUUUAUUUUUUUUUUUUUUUGAUUCCAGAAGGGACAGUUA (puzzle: Exclusion 1)		0.0227				
AAUUUACAUGAGGAUCACCCAUGUGAGGAUAUAUACAAAGAAGUGUUAUUAAGAAUGUAUAGAAGGCGCGUGAU [JR_Exc1_Sub039] (Eterna round: R97, puzzle: Exclusion 1)				0.0736	0.062	
AAUUUACAUGAGGAUCACCCAUGUGAGGAUAUGGAUUCGCUGGCCGUAGCCAGUGGAUCCAGAAGGCGCAUGAU [JL-ex1-4.12] (Eterna round: R97, puzzle: Exclusion 1)				0.402	0.0948	
AAUUUAUGAGGAUAUACAGUGUAAAACAUGAGGAUCACCCAUGUUCUUCAAUUAGUAUAUGUAGAAGGCAUAUGUA [JR_Ex5_Sub096] (Eterna round: R97, puzzle: Exclusion 5)				0.015	0.0137	
AAUUUGCAAGCGAGAUCCCACAUGAGGAUCACCCAUGUGCUCGUCUUAUAAGGUACUGUGACAAAAGUCACGGUACC [Mat - Sensor, turn-off var - Eli Mod - D95] (Eterna round: R97, puzzle: Sensor, turn-off variant 1)				0.0166	0.0168	
ACAAAGCUAGGAUAUGUGGCGGAUAACAUGAGGAUCACCCAUGUGAGCUCACAGAUCCGAGCAGAAGGAGCGAUUA [EX5 A.10] (Eterna round: R97, puzzle: Exclusion 5)				0.0153	0.0146	
ACAAGAGCGGAAGGAUAUUGUACAUGAGGAUCACCCAUGUAAUAAAUGAGGAUCACGGAUGUAGUCAAGAAGGUCCGGAUAAGA [Ostracism 1 - Jieux - Exclusion NG 2] (Eterna round: R96, puzzle: Exclusion NG 2)				0.0477	0.0506	0.0608
ACAAGCAGAGAGUAAAUGGACAUGAGGAUCACCCAUGUGAGUCCGAAGAGAUAAGAUAUAUUGUCGGCUCGUCUUAU [AK-miRNA-r3-21] (Eterna round: R97, puzzle: Sensor, turn-off variant 1)				0.105	0.105	
ACAAGCGAAAGGCUCGUCUUAUUUUUGUAGAGGUUCUAAACAUGAGGAUCACCCAUGUAGUGGUUAUGGUGGAGGUA [JR_SV3TOV2_Sub070] (puzzle: Sensor v3, turn-off variant 2)	0.0571	0.0644	0.0746			
